According to paper PMC6363164:

Target: Rab7-RILP complex (human) (UniProt P51149)
Assay: ITC; 20 °C; 20 mM Tris-HCl pH 7.5, 150 mM NaCl; 1 mM ORP1 ANK in the syringe, 0.1 mM Rab7 or Rab7-RILP in the cell; Rab7 Q67L with 0.5 mM GTP, Rab7 T22N with 0.5 mM GDP; independent binding model

Kd: 5 µM
B1: human ORP1 ANK domain (residue 5-152) (domain or fragment)
chain: AEQQLLHHARNGNAEEVRQLLETMARNEVIADINCKGRSKSNLGWTPLHLACYFGHRQVVQDLLKAGAEVNVLNDMGDTPLHRAAFTGRKELVMLLLEYNADTTIVNGSGQTAKEVTHAEEIRSMLEAVERTQQRKLEELLLAAAREG
